Marks after values point to notes of the source that are not given here. Positions of bridges follow the written chain, without caps; N, C: chain ends. GL‑2‑branched CH3O‑PEG (40k)‑CH2 = glycerol skeleton-containing 2-branched methoxy-PEG (40 kDa) attached via alkylamine (CH2) linkage; GL‑2‑branched CH3O‑PEG (40k)‑CO = glycerol skeleton-containing 2-branched methoxy-PEG (40 kDa) attached via urethane (CO) linkage
Target: T1, AM receptor (Homo sapiens, UniProt O60895+Q16602)
T1 construct: expressed in transfected cells; host or cells: HEK293 cell line
T1 sequence (Q16602 23-461): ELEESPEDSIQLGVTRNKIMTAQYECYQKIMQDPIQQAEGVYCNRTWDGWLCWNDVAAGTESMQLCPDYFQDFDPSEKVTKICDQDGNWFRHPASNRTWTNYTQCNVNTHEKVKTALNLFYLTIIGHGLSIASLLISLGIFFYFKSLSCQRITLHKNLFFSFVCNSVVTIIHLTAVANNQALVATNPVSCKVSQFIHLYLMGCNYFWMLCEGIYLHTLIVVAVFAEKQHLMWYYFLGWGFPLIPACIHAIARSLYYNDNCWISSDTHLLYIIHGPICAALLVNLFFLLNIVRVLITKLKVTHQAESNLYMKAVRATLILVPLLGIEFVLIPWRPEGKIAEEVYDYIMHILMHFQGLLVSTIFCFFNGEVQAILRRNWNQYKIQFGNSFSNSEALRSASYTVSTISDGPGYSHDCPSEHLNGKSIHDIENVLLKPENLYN
T1 sequence (O60895 43-175): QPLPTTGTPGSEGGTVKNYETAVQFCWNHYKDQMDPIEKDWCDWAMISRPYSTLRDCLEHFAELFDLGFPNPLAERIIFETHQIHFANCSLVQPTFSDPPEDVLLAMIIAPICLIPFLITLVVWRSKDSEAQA
Assay: Intracellular cAMP concentration-increasing effect in HEK293 cell line caused to express an AM receptor;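 note: cAMP inside confluent receptor-expressing cells quantified by ELISA after 15 min exposure to each peptide at 10^−8 mol/L alongside 0.5 mM IBMX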
Format: cell-based
Details: for Intracellular cAMP concentration-increasing effect (%): 10^−8 mol/L, 15 minutes, 0.5 mM IBMX; for influence of N-terminal deletion of the peptide moiety on the intracellular cAMP concentration-increasing effect: in words

[1] = percentage with respect to h.AM (1-52)
[2] = percentage with respect to h.AM (6-52)
[3] = percentage with respect to h.AM (16-52)

| Intracellular cAMP concentration-increasing effect (%) [1] | Substance | influence of N-terminal deletion of the peptide moiety on the intracellular cAMP concentration-increasing effect | further results |
| --- | --- | --- | --- |
| 99% | GL-2-branched CH3O-PEG (20k)-CO-^αNH-(h.AM (6-52)) ({GL‑2‑branched CH3O‑PEG (20k)‑CO}-NNFQGLRSFGCRFGTCTVQKLAHQIYQFTDKDKDNVAPRSKISPQGY-NH2; disulfide 11-16 (inferred); ends not checked) [Compound (30)] |  |  |
| 104% | GL-2-branched CH3O-PEG (20k)-CO-^αNH-(h.AM (11-52)) ({GL‑2‑branched CH3O‑PEG (20k)‑CO}-LRSFGCRFGTCTVQKLAHQIYQFTDKDKDNVAPRSKISPQGY-NH2; disulfide 6-11 (inferred); ends not checked) [Compound (31)] |  |  |
| 96% | GL-2-branched CH3O-PEG (20k)-CO-^αNH-(h.AM (16-52)) ({GL‑2‑branched CH3O‑PEG (20k)‑CO}-CRFGTCTVQKLAHQIYQFTDKDKDNVAPRSKISPQGY-NH2; disulfide 1-6 (inferred); ends not checked) [Compound (32)] |  |  |
| 61% | GL-2-branched CH3O-PEG (40k)-CO-^αNH-(h.AM (16-52)) ({GL‑2‑branched CH3O‑PEG (40k)‑CO}-CRFGTCTVQKLAHQIYQFTDKDKDNVAPRSKISPQGY-NH2; disulfide 1-6 (inferred); ends not checked) [Compound (33)] |  |  |
| 83% | GL-4-branched CH3O-PEG (40k)-CO-^αNH-(h.AM (6-52)) ({GL‑4‑branched CH3O‑PEG (40k)‑CO}-NNFQGLRSFGCRFGTCTVQKLAHQIYQFTDKDKDNVAPRSKISPQGY-NH2; disulfide 11-16 (inferred); ends not checked) [Compound (34)] |  |  |

The remaining lines, values behind:

| Substance | Intracellular cAMP concentration-increasing effect (%) [1] | influence of N-terminal deletion of the peptide moiety on the intracellular cAMP concentration-increasing effect | further results |
| --- | --- | --- | --- |
| CH3O-PEG (5k)-(CH2)2—CH2-^αNH-(h.AM (6-52)) ({CH3O‑PEG (5k)‑(CH2)2—CH2}-NNFQGLRSFGCRFGTCTVQKLAHQIYQFTDKDKDNVAPRSKISPQGY-NH2; disulfide 11-16 (inferred); ends not checked) [Compound (18)] | 90% | suppressed the influence of N-terminal deletion |  |
| CH3O-PEG (5k)-(CH2)2—CH2-^αNH-(h.AM (11-52)) ({CH3O‑PEG (5k)‑(CH2)2—CH2}-LRSFGCRFGTCTVQKLAHQIYQFTDKDKDNVAPRSKISPQGY-NH2; disulfide 6-11 (inferred); ends not checked) [Compound (19)] | 80% | suppressed the influence of N-terminal deletion |  |
| CH3O-PEG (5k)-(CH2)2—CH2-^αNH-(h.AM (16-52)) ({CH3O‑PEG (5k)‑(CH2)2—CH2}-CRFGTCTVQKLAHQIYQFTDKDKDNVAPRSKISPQGY-NH2; disulfide 1-6 (inferred); ends not checked) [Compound (20)] | 39% | suppressed the influence of N-terminal deletion |  |
| CH3O-PEG (5k)-(CH2)5-CO-^αNH-(h.AM (11-52)) ({CH3O‑PEG (5k)‑(CH2)5‑CO}-LRSFGCRFGTCTVQKLAHQIYQFTDKDKDNVAPRSKISPQGY-NH2; disulfide 6-11 (inferred); ends not checked) [Compound (16), amide linkage-type PEG (5k) adrenomedullin derivative, reference compound] |  | significantly decreased | Intracellular cAMP concentration-increasing effect (%) (percentage with respect to h.AM (11-52)): 1**^) % |
| CH3O-PEG (5k)-(CH2)5—CO-^αNH-(h.AM (6-52)) ({CH3O‑PEG (5k)‑(CH2)5—CO}-NNFQGLRSFGCRFGTCTVQKLAHQIYQFTDKDKDNVAPRSKISPQGY-NH2; disulfide 11-16 (inferred); ends not checked) [Compound (15), amide linkage-type PEG (5k) adrenomedullin derivative, reference compound] |  | significantly decreased | Intracellular cAMP concentration-increasing effect (%) [2]: 101*^) % |
| CH3O-PEG (5k)-(CH2)5—CO-^αNH-(h.AM (16-52)) ({CH3O‑PEG (5k)‑(CH2)5—CO}-CRFGTCTVQKLAHQIYQFTDKDKDNVAPRSKISPQGY-NH2; disulfide 1-6 (inferred); ends not checked) [Compound (17), amide linkage-type PEG (5k) adrenomedullin derivative, reference compound] |  | significantly decreased | Intracellular cAMP concentration-increasing effect (%) [3]: 9***^) % |
| CH3O-PEG (20k)-(CH2)2—CH2-^αNH-(h.AM (6-52)) ({CH3O‑PEG (20k)‑(CH2)2—CH2}-NNFQGLRSFGCRFGTCTVQKLAHQIYQFTDKDKDNVAPRSKISPQGY-NH2; disulfide 11-16 (inferred); ends not checked) [Compound (21)] |  | high intracellular cAMP concentration-increasing effect without the influence of the N-terminal deletion | Intracellular cAMP concentration-increasing effect (%) [2]: 98*^) % |
| CH3O-PEG (20k)-(CH2)2—CH2-^αNH-(h.AM (11-52)) ({CH3O‑PEG (20k)‑(CH2)2—CH2}-LRSFGCRFGTCTVQKLAHQIYQFTDKDKDNVAPRSKISPQGY-NH2; disulfide 6-11 (inferred); ends not checked) [Compound (22)] | 97% | high intracellular cAMP concentration-increasing effect without the influence of the N-terminal deletion |  |
| CH3O-PEG (20k)-(CH2)2—CH2-^αNH-(h.AM (16-52)) ({CH3O‑PEG (20k)‑(CH2)2—CH2}-CRFGTCTVQKLAHQIYQFTDKDKDNVAPRSKISPQGY-NH2; disulfide 1-6 (inferred); ends not checked) [Compound (23)] | 97% | high intracellular cAMP concentration-increasing effect without the influence of the N-terminal deletion |  |
| GL-2-branched CH3O-PEG (40k)-CH2-^αNH-(h.AM (1-52)-Gly) [Compound (36)] |  |  | Intracellular cAMP concentration-increasing effect (%) (percentage with respect to h.AM (1-52)-Gly): 96****^) % |
| GL-2-branched CH3O-PEG (40k)-CH2-^αNH-(h.AM (6-52)) ({GL‑2‑branched CH3O‑PEG (40k)‑CH2}-NNFQGLRSFGCRFGTCTVQKLAHQIYQFTDKDKDNVAPRSKISPQGY-NH2; disulfide 11-16 (inferred); ends not checked) [Compound (29)] | 77% |  |  |
| GL-2-branched CH3O-PEG (40k)-CH2-^αNH-(h.AM (16-52)) ({GL‑2‑branched CH3O‑PEG (40k)‑CH2}-CRFGTCTVQKLAHQIYQFTDKDKDNVAPRSKISPQGY-NH2; disulfide 1-6 (inferred); ends not checked) [Compound (24)] |  |  | Intracellular cAMP concentration-increasing effect (%) [3]: 93***^) % |

Reference: US11478551B2, “Long-acting adrenomedullin derivative” (University of Miyazaki, priority 2015, dated 2022)
